Reference: US20120065123A1 (published 2012)
Each block holds one binder with its values, some of them ahead of it. Where no end group is shown, it is not given here.

Legend:
ANXA1 = biological target: T1, ANXA1 (human, UniProt P04083); test: Invitrogen Protoarray Human Protein Microarray v. 4.0; biotinylated synbody detected with fluorescently labelled streptavidin; fluorescence intensity above background
T1 construct: GST fusion, feature of the Invitrogen Protoarray Human Protein Microarray v; 4.0
T1 sequence (array feature, looked up): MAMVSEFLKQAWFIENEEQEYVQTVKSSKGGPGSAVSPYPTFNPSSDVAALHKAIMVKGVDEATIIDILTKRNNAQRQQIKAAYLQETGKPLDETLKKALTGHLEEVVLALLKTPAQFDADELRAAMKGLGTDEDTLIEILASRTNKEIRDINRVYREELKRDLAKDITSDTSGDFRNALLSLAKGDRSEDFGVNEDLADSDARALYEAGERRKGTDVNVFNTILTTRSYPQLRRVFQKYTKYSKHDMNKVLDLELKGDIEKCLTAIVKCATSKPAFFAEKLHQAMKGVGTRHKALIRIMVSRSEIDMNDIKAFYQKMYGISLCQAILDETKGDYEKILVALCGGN
Experimental: (§1) Application of the synbodies to the microarray was performed in accordance with manufacturer instructions: (see ProtoArray Human Protein Microarray, Invitrogen, Catalog no. PAH052401, Version B, 15 Dec. 2006, 25-0970, Users Manual.) After blocking the array with 1% BSA/PBS/0.1% Tween for 1 hour at 4C with gentle shaking, 120 μl of probing buffer (1×PBS, 5 mM mgCl2, 0.5 mM DTT, 0.05% Triton X-100, 5% glycerol, 1% BSA) with synbody was applied to the array. The prescribed cover slip was placed over the array and adjusted to remove air bubbles. The array was incubated in a 50 ml conical tube, printed side up, for 1.5 hours at 4C without shaking. The array was then removed from the conical tube inserted diagonally into the array chamber, kept on ice. 8 ml probing buffer was added to the chamber wall. The cover slip was removed and the array was incubated in probing buffer for 1 minute on ice. The probing buffer was decanted and drained. Two further washings were performed adding 8 ml probing buffer, incubating on ice for 1 minute, and decanting and draining. 5 nM fluorescently labeled streptavidin diluted in 6 ml probing buffer was incubated on the array for 30 minutes on ice in the dark, after which the solution was decanted and drained. Three wash steps were performed, each by adding 8 ml probing buffer, incubating for 1 minute on ice, decanting, and draining. The array was removed from the chamber, centrifuged at 800×g for 5 minutes at room temperature. The array was dried in the dark for 60 minutes at room temperature, after which it was scanned using a fluorescent microarray scanner and data was taken and analyzed.

ROCK2 = biological target: T2, ROCK2 (human, UniProt O75116); test: as above
T2 construct: GST fusion, feature of the Invitrogen Protoarray Human Protein Microarray v; 4.0
Experimental: as §1

ACTC = biological target: T3, ACTC (human, UniProt P68032); test: as above
T3 construct: GST fusion, feature of the Invitrogen Protoarray Human Protein Microarray v; 4.0
Experimental: as §1

LACRT = biological target: T4, LACRT (human, UniProt Q9GZZ8); test: as above
T4 construct: GST fusion, feature of the Invitrogen Protoarray Human Protein Microarray v; 4.0
T4 sequence (array feature, looked up): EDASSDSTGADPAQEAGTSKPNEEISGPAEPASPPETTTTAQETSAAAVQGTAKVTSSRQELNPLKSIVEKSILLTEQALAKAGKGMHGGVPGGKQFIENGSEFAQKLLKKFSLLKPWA
Experimental: as §1

CHAF1B = biological target: T5, CHAF1B (human, UniProt Q13112); test: as above
T5 construct: GST fusion, feature of the Invitrogen Protoarray Human Protein Microarray v; 4.0
Experimental: as §1

PTK2 = biological target: T6, PTK2 (human, UniProt Q05397); test: as above
T6 construct: GST fusion, feature of the Invitrogen Protoarray Human Protein Microarray v; 4.0
Experimental: as §1

transferrin = biological target: T7, transferrin; test: SPR
T7 construct: Alexa 555 labelled on arrays, amine-coupled to the chip in SPR, on beads in mRNA display; also called TRF; transferring

AKT1 = AKT1 (Homo sapiens (Human), UniProt P31749 1-480); test: SPR
[1] = biological target: T8, pooled human transferrin (Sigma), biotinylated (human, UniProt P02787 20-698, biotinylated at amines with NHS-LC-LC-Biotin); test: SPR Biacore A-100, purified peptide at several concentrations
T8 construct: Captured on Neutravidin on a CM5 chip (Biacore A-100)
Text: A Biacore A-100 Surface Plasmon Resonance (SPR) system was used to measure the binding response of each peptide to several different target proteins immobilized on a gold surface. The A-100 has four different flow cells and within each flow cell are five addressable spots. Therefore four different proteins and a negative control reference can be used per flow cell. Depending on the purpose of the assay, up to 16 different target proteins can be immobilized on a single SPR chip. The instrument is equipped to evaluate up to 10 384-well plates unattended and can process approximately four 384-well plates per day. Sensorgrams are collected from each immobilized protein, so a binding profile for each analyte versus each of the protein targets is generated for each injection. Target proteins were immobilized using a biotin capture approach in which a CM5 chip was activated using standard amine coupling chemistry and Neutravidin was covalently coupled to the chip. Each biotinylated protein was injected over a single spot and the amount of protein captured was measured.

[2] = biological target: T9, Tumor Necrosis Factor-alpha (TNF-α); test: SPR equilibrium, Biacore A100, TNF-α captured on chip
T9 construct: also called TNF-a
Experimental: Point-mutant libraries were prepared in 96-well stock plates From the stock plate, peptides were diluted to 50 μM concentration in Biacore HBS-EP buffer (GE Healthcare, Piscataway, N.J.) containing 1 mg/ml carboxymethyl-dextran (Sigma-Aldrich, St. Louis, Mo.) to reduce non-specific binding to the CM-5 SPR chip surface. […] Spot 3 contained only immobilized neutravidin and served as a reference spot.
Purified point-mutant affinities were measured on the Biacore A100 using SPR equilibrium binding response across a series of peptide concentrations on an SPR chip with TNF-α captured as described above.

[3] = biological target: T9, Tumor Necrosis Factor-alpha (TNF-α); test: SPR kinetic fits of sensorgrams

T9 sequence (P01375 77-233): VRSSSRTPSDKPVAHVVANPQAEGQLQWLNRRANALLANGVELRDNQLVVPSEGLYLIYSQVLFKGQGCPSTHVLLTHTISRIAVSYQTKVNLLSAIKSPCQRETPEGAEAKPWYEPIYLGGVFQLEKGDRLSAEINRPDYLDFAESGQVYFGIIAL
T2 sequence (O75116 1-552 limits assumed): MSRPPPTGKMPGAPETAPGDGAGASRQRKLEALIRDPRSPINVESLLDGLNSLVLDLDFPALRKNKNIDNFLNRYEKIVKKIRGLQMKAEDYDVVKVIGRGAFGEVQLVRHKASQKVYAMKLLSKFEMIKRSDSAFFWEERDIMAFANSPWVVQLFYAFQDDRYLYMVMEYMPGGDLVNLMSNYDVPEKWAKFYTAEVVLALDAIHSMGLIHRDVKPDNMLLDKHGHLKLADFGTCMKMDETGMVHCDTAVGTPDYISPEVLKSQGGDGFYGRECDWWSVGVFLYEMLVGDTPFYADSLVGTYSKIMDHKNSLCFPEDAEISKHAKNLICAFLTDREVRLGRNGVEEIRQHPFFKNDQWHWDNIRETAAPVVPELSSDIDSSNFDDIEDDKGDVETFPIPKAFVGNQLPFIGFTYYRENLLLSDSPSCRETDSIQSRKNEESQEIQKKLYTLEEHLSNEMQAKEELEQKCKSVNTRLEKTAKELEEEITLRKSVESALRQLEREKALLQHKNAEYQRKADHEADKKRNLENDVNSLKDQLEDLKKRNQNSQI
T6 sequence (Q05397 whole entry, the tested form may be a part): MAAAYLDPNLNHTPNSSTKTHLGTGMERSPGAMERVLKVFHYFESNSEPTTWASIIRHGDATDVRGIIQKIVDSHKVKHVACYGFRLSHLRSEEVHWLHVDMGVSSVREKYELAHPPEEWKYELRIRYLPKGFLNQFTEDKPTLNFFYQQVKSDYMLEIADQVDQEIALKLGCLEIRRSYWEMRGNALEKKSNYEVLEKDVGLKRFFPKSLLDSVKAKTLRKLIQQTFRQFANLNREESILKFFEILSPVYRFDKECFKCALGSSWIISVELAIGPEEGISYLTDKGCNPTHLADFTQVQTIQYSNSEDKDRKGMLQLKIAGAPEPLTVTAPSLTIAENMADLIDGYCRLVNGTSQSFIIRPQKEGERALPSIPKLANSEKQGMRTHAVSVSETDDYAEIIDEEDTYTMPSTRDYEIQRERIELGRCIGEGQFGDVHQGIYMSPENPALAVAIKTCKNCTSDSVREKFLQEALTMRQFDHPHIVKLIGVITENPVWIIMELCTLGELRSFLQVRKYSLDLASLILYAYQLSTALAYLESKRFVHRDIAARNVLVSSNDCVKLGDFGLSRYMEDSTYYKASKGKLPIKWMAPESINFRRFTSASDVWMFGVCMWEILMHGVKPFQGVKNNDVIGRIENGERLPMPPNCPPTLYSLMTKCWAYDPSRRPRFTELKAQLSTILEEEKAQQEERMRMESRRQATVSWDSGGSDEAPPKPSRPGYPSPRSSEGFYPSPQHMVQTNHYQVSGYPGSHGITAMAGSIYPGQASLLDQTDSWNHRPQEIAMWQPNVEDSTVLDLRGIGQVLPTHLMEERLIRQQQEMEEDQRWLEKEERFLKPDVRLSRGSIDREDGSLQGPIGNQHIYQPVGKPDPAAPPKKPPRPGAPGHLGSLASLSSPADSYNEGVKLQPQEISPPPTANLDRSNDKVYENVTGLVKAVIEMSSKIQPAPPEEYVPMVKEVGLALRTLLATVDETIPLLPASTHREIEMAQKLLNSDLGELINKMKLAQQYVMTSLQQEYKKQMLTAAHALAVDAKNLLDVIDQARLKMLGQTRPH
Sequence of AKT1 (P31749 whole entry): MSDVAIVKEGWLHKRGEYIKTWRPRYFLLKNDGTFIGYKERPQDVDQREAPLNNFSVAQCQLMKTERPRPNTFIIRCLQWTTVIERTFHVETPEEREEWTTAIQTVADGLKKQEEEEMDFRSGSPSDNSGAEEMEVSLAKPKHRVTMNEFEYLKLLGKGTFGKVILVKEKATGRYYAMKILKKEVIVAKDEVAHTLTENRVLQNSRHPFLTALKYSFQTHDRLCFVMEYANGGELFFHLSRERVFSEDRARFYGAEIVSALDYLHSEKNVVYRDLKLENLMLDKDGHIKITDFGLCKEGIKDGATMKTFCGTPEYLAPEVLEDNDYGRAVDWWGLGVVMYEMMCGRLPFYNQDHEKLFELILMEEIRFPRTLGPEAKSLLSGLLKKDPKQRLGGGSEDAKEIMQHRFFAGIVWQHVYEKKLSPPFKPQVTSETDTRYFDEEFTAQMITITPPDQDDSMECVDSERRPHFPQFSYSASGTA
T7 sequence (P02787 20-698): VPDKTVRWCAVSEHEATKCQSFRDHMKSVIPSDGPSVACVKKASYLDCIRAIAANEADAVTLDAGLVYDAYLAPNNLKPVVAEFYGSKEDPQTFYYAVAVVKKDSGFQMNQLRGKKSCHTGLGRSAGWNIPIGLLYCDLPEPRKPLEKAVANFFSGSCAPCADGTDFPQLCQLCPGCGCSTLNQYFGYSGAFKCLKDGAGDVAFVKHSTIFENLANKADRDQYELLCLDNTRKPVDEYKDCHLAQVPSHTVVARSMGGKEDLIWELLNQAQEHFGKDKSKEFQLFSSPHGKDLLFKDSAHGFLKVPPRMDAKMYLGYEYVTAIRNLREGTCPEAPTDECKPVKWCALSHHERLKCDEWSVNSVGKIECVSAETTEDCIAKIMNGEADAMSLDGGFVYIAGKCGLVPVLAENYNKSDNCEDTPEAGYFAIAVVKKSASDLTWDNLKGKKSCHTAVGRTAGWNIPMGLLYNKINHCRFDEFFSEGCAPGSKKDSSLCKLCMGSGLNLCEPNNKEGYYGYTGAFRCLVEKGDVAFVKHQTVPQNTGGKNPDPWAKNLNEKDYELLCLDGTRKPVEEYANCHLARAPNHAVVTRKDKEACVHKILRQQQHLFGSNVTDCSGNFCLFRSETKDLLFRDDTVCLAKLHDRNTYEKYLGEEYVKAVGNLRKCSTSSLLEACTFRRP
T8 sequence (P02787 20-698 limits assumed): as the sequence (P02787 20-698) above
T5 sequence (Q13112 whole entry, the tested form may be a part): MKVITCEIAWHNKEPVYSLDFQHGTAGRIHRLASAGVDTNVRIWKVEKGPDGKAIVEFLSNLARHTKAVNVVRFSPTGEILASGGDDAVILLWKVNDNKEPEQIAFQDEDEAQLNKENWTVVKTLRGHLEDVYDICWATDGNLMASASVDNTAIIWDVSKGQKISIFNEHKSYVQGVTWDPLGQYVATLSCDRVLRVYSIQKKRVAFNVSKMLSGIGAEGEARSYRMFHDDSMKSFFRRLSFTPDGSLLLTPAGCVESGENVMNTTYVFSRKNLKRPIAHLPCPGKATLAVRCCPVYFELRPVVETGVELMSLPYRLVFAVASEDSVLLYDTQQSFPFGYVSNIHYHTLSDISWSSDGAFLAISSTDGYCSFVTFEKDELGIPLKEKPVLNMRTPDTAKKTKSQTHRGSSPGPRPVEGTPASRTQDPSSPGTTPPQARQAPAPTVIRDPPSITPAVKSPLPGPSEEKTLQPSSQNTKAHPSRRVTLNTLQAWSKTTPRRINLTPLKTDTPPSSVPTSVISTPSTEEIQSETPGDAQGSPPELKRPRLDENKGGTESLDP

binding result (ANXA1): binds | binding result (ROCK2): no binding | binding result (ACTC): binds | binding result (LACRT): no binding | binding result (CHAF1B): binds | binding result (PTK2): no binding | Kd (transferrin): ~0.141 µM | Kd (AKT1): ~0.001 µM
B1: SYN23-26 (designed binder)
peptide 1: FRGWAHIFFGPHVIYRGGSG
peptide 2: AHKVVPQRQIRHAYNRYGSG
modifications: also: linker at chain A 20 at chain B 20 to a chain's C-terminus via Lys-Cys(biotin)
notes: Two 20-mers on the alpha and epsilon amines of a lysine, about 1 nm apart; thiol of the cysteine biotinylated for array detection; also called biotinylated anti-TRF synbody

Kd [1]: 78.9 µM
B2: TRF101 (peptide)
peptide: ARDLLIQKNSGQDVDHRGSC
notes: Screened unpurified, then resynthesised and HPLC purified for the KD

Binder: FERDPLMMPWSFLQSRQGSC [TNF1 lead peptide]
Kd [2]: 160 µM | koff [3]: 1.6 s⁻¹
